Laboratory results: US20250361314A1 (SHANGHAI HUAOTA BIOPHARMACEUTICAL, published 2025)

T1: Cynomolgus CD39 antigen (cynomolgus, UniProt A0A7N9DGH8 38-478)
T1 construct: Antigen used as analyte in SPR
T1 sequence: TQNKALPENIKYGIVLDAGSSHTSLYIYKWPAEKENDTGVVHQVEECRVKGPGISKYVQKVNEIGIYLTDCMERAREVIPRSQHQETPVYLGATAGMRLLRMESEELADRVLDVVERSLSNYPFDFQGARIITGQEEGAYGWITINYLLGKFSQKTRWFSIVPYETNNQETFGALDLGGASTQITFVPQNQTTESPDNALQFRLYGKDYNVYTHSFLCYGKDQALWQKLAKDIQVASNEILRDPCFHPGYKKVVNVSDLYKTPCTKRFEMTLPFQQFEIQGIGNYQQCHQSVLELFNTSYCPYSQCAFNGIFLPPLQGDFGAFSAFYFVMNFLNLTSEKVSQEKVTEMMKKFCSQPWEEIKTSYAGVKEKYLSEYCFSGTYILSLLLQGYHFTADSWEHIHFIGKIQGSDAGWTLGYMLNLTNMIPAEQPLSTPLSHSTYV

T2: Cynomolgus CD73 antigen (cynomolgus, UniProt A0A2K5V5U7 27-547)
T2 construct: Antigen used as analyte in SPR
T2 sequence: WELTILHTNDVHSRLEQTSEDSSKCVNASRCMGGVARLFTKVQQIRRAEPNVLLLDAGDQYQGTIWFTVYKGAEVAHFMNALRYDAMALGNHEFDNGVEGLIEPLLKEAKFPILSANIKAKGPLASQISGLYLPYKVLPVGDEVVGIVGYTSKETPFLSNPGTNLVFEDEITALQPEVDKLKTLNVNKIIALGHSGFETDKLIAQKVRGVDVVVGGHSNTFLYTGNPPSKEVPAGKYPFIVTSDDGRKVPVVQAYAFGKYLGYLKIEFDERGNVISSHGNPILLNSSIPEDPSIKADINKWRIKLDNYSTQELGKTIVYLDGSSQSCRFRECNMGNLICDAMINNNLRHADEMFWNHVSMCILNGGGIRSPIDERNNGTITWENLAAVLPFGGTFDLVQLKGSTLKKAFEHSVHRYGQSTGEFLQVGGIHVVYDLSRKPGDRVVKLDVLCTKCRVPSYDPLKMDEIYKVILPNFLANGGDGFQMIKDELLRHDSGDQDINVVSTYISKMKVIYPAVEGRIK

T3: Human CD39 antigen (human, UniProt P49961 38-478)
T3 construct: Antigen used as analyte in SPR; also called ENTPD1
T3 sequence (looked up): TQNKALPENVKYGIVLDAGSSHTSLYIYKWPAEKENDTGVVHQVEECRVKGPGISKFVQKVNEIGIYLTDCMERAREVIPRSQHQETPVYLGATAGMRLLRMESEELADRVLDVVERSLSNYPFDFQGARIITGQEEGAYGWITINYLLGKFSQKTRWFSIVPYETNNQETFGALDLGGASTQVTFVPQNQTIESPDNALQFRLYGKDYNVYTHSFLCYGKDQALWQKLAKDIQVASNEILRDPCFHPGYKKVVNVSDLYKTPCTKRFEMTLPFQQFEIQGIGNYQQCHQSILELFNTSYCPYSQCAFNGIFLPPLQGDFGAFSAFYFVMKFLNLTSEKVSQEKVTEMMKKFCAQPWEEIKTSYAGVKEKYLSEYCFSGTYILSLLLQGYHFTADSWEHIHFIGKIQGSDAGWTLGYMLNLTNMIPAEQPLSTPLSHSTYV

T4: Human CD73 antigen (human, UniProt P21589 27-547, limits assumed)
T4 construct: Antigen used as analyte in SPR; also called NT5E
T4 sequence (looked up): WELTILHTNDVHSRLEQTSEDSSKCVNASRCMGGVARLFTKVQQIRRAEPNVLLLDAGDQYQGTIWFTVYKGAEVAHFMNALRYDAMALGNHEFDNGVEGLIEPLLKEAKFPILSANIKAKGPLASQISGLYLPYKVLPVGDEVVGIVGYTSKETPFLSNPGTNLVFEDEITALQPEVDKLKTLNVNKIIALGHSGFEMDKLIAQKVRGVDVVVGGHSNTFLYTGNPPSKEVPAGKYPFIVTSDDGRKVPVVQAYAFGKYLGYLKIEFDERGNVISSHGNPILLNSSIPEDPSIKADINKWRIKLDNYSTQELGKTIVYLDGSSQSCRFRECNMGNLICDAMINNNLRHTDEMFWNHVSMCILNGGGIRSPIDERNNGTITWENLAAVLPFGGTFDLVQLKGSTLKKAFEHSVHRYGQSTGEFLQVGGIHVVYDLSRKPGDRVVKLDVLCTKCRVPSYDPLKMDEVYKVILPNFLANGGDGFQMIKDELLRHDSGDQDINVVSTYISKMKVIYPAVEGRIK


Columns and labels:
Assay in all cases: SPR (Biacore 8K), species cross test, antibody captured on anti-human capture CM5 chip, antigen as analyte, 1:1 model
Cynomolgus CD39 antigen = target: T1, Cynomolgus CD39 antigen
Experimental: (§1) The experimental method is as follows:
(§2) An Anti-Human Capture-CM5 chip (GE, #BR-1005-30) was prepared using coupling methods of a Human Antibody Capture Kit (GE, #BR-1008-39) and an amino coupling kit (GE, BR-1000-50). The chip was equilibrated at room temperature for about 20-30 min and loaded into a Biacore 8K instrument. The antigen and antibody were diluted to an experimental working concentration using an equilibration buffer. The antigen was diluted with an equilibrium buffer to 50 nM, and then diluted three-fold for seven concentration gradients, and two zero concentrations (i.e., the equilibrium buffer) and one repeat concentration (typically the lowest concentration repeat) were set. Experimental analysis was performed on 10 antigen concentrations (2 zero concentrations, 7 gradient concentrations, and 1 repeated concentration) in a cyclic manner according to an order of antibody, antigen, and regeneration. The antigen injection flow rate was 30 μL/min, the binding time was 120 s, and the dissociation time was 600 s. Following the analysis, the data was analyzed using the corresponding analysis program to confirm that there was no obvious reference binding. Using Kinetics and a 1:1 binding model, the data was fit to obtain the kinetic related parameters Ka, Kd, and KD values of the bispecific antibodies.

Cynomolgus CD73 antigen = target: T2, Cynomolgus CD73 antigen
Experimental: as §1, §2

Human CD39 antigen = target: T3, Human CD39 antigen
Experimental: as §1, §2

Human CD73 antigen = target: T4, Human CD73 antigen
Experimental: as §1, §2

Binder	Kd (Cynomolgus CD39 antigen) [pM]	koff (Cynomolgus CD39 antigen) [s⁻¹]	kon (Cynomolgus CD39 antigen) [M⁻¹ s⁻¹]	Kd (Cynomolgus CD73 antigen) [pM]	koff (Cynomolgus CD73 antigen) [s⁻¹]	kon (Cynomolgus CD73 antigen) [M⁻¹ s⁻¹]	Kd (Human CD39 antigen) [pM]	koff (Human CD39 antigen) [s⁻¹]	kon (Human CD39 antigen) [M⁻¹ s⁻¹]	Kd (Human CD73 antigen) [pM]	koff (Human CD73 antigen) [s⁻¹]	kon (Human CD73 antigen) [M⁻¹ s⁻¹]
CD39/CD73 bispecific antibody 700035 (CD39-VHH-CD73-IgG) (bispecific antibody) heavy: not shown light: DIQMTQSPSSMSASVGDRVTITCKASQNVRTAVVWYQQKPGKAPKALIYLASNRHTGVPDRFSGSGSGTDFTLTISSLQPEDFATYFCLQHWNYPYTFGQGTKLEIKRTVAAPSVFIFPPSDEQLKSGTASVVCLLNNFYPREAKVQWKVDNALQSGNSQESVTEQDSKDSTYSLSSTLTLSKADYEKHKVYACEVTHQGLSSPVTKSFNRGEC	2610	0.00161	618000	409	0.000342	836000	70.8	9.28e-05	1.31e+06	341	0.000319	935000
CD39/CD73 bispecific antibody 700038 (CD39-VHH-CD73-IgG) (bispecific antibody) heavy: not shown light: DIQMTQSPSSLSASVGDRVTITCRASQDVGTAEAWYQQKPGKAPKLLIYWASTRHTGVPSRFSGSGSGTDFTLTISSLQPEDFATYYCQQYSSYPLTFGQGTKLEIKRTVAAPSVFIFPPSDEQLKSGTASVVCLLNNFYPREAKVQWKVDNALQSGNSQESVTEQDSKDSTYSLSSTLTLSKADYEKHKVYACEVTHQGLSSPVTKSFNRGEC	2690	0.00163	606000	326	0.000148	456000	91.8	9.54e-05	1.04e+06	425	0.000249	587000
